This is an account of results in US20230372518A1, “ANTIMITOTIC TETRAPEPTIDE-ANTIBODY CONJUGATES AND METHODS OF USING SAME” (Angiex, Inc., priority 2020, published 2023).

To fix the notation:
T1: Transmembrane-4 L six family member-1 (TM4SF1) (human, UniProt P30408 1-202, limits assumed)
T1 construct: also called hTM4SF1; human TM4SF1
T1 sequence: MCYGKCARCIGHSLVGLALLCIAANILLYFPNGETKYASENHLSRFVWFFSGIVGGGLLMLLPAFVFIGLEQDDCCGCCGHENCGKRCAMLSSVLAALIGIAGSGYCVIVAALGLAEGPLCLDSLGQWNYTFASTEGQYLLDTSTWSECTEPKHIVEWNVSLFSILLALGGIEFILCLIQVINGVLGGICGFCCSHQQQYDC

B1: monoclonal murine antibody AGX-A05 (antibody, V domains shown)
VH: EVQVQQSGPELVKPGASVKMSCKASGYTFTSYVMHWVKQKPGQGLEWIGYINPNNDNINYNEKFKGKASLTSDKSSNTVYMELSSLTSEDSAVYYCAGYGNSGANWGQGTLVTVSA
VL: DIQMTQSPASLSASVGETVTITCRTSKNIFNFLAWYHQKQGRSPRLLVSHTKTLAAGVPSRFSGSGSGTQFSLKINSLQPEDFGIYYCQHHYGTPWTFGGGTKLEIK
notes: Murine monoclonal antibody
B2: monoclonal murine antibody AGX-A08 (antibody, V domains shown)
VH: EVQLQQSGPELVKPGASVKLSCKASGYTVTSYVMHWVKQKPGQGLEWIGYINPYSDVTNCNEKFKGKATLTSDKTSSTAYMELSSLTSEDSAVYYCSSYGGGFAYWGQGTLVTVSA
VL: DIQMTQSPASLSASVGEPVTITCRASKNIYTYLAWYHQKQGKSPQFLVYNARTLAGGVPSRLSGSGSVTQFSLNINTLHREDLGTYFCQHHYDTPYTFGGGTNLEIK
notes: Murine monoclonal antibody
B3: monoclonal murine antibody AGX-A04 (antibody, V domains shown)
VH: EVQLQQSGPELVKPGASVKISCKTSGYTFTDYTMHWVRQSHGKSLEWIGSFNPNNGGLTNYNQKFKGKATLTVDKSSSTVYMDLRSLTSEDSAVYYCTRIRATGFDSWGQGTTLTVSS
VL: DIVMSQSPSSLAVSAGEKVTMSCKSSQSLLNSRTRKNYLAWYQQKPGQSPKLLIYWASTRESGVPDRFTGSGSGTDFTLTISNVQAEDLTVYYCKQSYNPPWTFGGGTKLEIK
notes: Murine monoclonal antibody
B4: monoclonal murine antibody AGX-A07 (antibody, V domains shown)
VH: QIQLVQSGPELKKPGETVKISCKASGYTFTNYGVKWVKQAPGKDLKWMGWINTYTGNPIYAADFKGRFAFSLETSASTAFLQINNLKNEDTATYFCVRFQYGDYRYFDVWGAGTTVTVSS
VL: QIILSQSPAILSASPGEKVTMTCRANSGISFINWYQQKPGSSPKPWIYGTANLASGVPARFGGSGSGTSYSLTISRVEAEDAATYYCQQWSSNPLTFGAGTKLELR
notes: The humanized A07 variants (A07-YTEC etc.) used in the ADC killing assays are different molecules and are not entered
B5: monoclonal murine antibody AGX-A09 (antibody, V domains shown)
VH: EVQLQQSGPELVKPGASVKMSCKASGYTFSSYVMHWVKQKPGQGLEWIGYINPYSDVTNYNEKFKGKATLTSDRSSNTAYMELSSLTSEDSAVYYCARNYFDWGRGTLVTVSA
VL: DIQMTQSPASLSASVGETVTITCRASKNVYSYLAWFQQKQGKSPQLLVYNAKTLAEGVPSRFSGGGSGTQFSLKINSLQPADFGSYYCQHHYNIPFTFGSGTKLEIK
notes: Murine monoclonal antibody
B6: monoclonal murine antibody AGX-A03 (antibody, V domains shown)
VH: QIQLVQSGPELKKPGETVKISCKASGYSFRDYGMNWVKQAPGRTFKWMGWINTYTGAPVYAADFKGRFAFSLDTSASAAFLQINNLKNEDTATYFCARWVSYGNNRNWFFDFWGAGTTVTVSS
VL: DVLMTQTPLSLPVRLGDQASISCRSSQTLVHSNGNTYLEWYLQKPGQSPKLLIYKVSNRLSGVPDRFSGSGSGTDFTLKISRVETEDLGVYYCFQGSHGPWTFGGGTKLEIK
notes: Murine monoclonal antibody

The target in the first data set is T1, Transmembrane-4 L six family member-1 …. Briefly: antibody screen (method not described in this filing).
Settings: not given
Regarding B1, the binding result is recorded as “binds”. Same read-out and setting: the result for B2 reads “binds”. On to B3, for which the binding result is “binds”.

Take B4: the binding result is “binds”.

For the molecule B5, the binding result is “binds”. The same measure, in the same setting: the result for B6 reads “binds”.

Tested on in another data set: not given
Assay: not given
As to conditions: treatment with CA4P; cited from earlier work.
As to `COc1ccc(/C=C\c2cc(OC)c(OC)c(OC)c2)cc1OP(=O)(O)O` [CA4P, Combretastatin], the “Patients who experienced heart attacks while being treated” value is recorded as “seven”.
